What all share (assay type): cell-based
The subject of assay [1] is Normal human umbilical vein endothelial cells and normal human dermal fibroblasts. The assay can be described thus: Evaluation of angiogenesis inhibitory action (angiogenesis kit, lumen formation in the presence of VEGF-A). How it is done: Evaluation of Angiogenesis Inhibitory Action
A test was conducted for confirming the angiogenesis inhibitory action of cinnamon bark hot water extract.
Normal human umbilical vein endothelial cells and normal human dermal fibroblasts were co-cultured at a constant ratio using an angiogenesis kit (Kurabo Industries) and prepared in the growth state of the initial stage of lumen formation. The cells were incubated (under conditions of 37° C. and 5% CO2) after adding medium containing a prescribed concentration of cinnamon bark hot water extract in the presence of 10 ng/ml of vascular endothelial cell growth factor A (VEGF-A, Kurabo Industries). […] The stained images obtained from each well were then photographed (FIG. 4), and the images were analyzed using the length and surface area of lumen formation as indicators to evaluate angiogenesis inhibitory action (FIGS. 5 and 6). Image analysis for the length of lumen formation and image analysis for surface area were respectively carried out using angiogenesis quantification software (Kurabo Industries). […] Moreover, angiogenesis inhibitory action in the presence of VGF-A was also evaluated for Ang-1, which is known to have an action that is responsible for vascular stabilization.

Another assay has as its target T1, full-length murine TIE2 (Mus musculus, UniProt Q02858).
T1 construct: Ba/F3 transduced with full-length murine TIE2(BaF/TIE2); expressed in transfected cells; host or cells: Ba/F3 (murine pro-B cell line)
The assay can be described thus: Tie-2 phosphorylation evaluation in Baf3 cells (BaF/TIE2), Western blotting. As to conditions: extracts 100 ppm, Angiopoietin-1 0.5 ppm, 10 minutes, FIG. 1 and 2. Here is the method:
Tie-2 Phosphorylation Evaluation Method
(§1) Baf3 cells, a murine pro-B cell line, Ba/F3 transduced with full-length murine TIE2(BaF/TIE2) were incubated in RPMI 1640 medium in the presence of IL-3 (Biosource, PMC0034) and 10% FCS. The cells were plated into a 6-well plate at 2×10^6 cells/1.5 mL/well and incubated overnight while omitting the FCS starting on the day before cell stimulation. DMSO solutions of the aforementioned hot water extract dry residues, Angiopoietin-1 (R&D System, 932-AN) as a positive control or DMSO as a negative control were added to the wells at a final concentration of 100 ppm, 0.5 ppm and 1000 ppm, respectively, followed by incubating for 10 minutes, cooling the cells on ice and washing with chilled PBS. The cells were then ultrasonically homogenized in RIPA buffer containing protease inhibitors (leupeptin, aprotinin, pepstatin, PMSF, Na3VO4). Sample buffer (0.2 M Tris-HCl (pH 6.8), 4% SDS, 20% glycerol, 5 mM EDTA, 0.01% BPB) was then added followed by carrying out SDS-PAGE (7.5% polyacrylamide gel, 12 wells, NPU-7.5L, Atto Corp.) under the conditions indicated below.
Gel: 7.5% acrylamide gel (NPU-7.5L, Atto Corp.)
Phoresis conditions: 40 mA (75 minutes, 2 gel sheets) […]
(§2) Next, Western blotting (20 V, 4° C., overnight) was carried out for transcription to a PVDF membrane. […] Protein bands were detected by chemiluminescence detection (ECL).

The target of the next assay is T2, Tie-2 (Homo sapiens, UniProt Q02763).
T2 construct: Tie-2 phosphorylation was similarly evaluated using normal human umbilical vein endothelial cells (HUVEC); endogenous in cells; host or cells: HUVEC (normal human umbilical vein endothelial cells)
T2 sequence (Q02763 23-1124): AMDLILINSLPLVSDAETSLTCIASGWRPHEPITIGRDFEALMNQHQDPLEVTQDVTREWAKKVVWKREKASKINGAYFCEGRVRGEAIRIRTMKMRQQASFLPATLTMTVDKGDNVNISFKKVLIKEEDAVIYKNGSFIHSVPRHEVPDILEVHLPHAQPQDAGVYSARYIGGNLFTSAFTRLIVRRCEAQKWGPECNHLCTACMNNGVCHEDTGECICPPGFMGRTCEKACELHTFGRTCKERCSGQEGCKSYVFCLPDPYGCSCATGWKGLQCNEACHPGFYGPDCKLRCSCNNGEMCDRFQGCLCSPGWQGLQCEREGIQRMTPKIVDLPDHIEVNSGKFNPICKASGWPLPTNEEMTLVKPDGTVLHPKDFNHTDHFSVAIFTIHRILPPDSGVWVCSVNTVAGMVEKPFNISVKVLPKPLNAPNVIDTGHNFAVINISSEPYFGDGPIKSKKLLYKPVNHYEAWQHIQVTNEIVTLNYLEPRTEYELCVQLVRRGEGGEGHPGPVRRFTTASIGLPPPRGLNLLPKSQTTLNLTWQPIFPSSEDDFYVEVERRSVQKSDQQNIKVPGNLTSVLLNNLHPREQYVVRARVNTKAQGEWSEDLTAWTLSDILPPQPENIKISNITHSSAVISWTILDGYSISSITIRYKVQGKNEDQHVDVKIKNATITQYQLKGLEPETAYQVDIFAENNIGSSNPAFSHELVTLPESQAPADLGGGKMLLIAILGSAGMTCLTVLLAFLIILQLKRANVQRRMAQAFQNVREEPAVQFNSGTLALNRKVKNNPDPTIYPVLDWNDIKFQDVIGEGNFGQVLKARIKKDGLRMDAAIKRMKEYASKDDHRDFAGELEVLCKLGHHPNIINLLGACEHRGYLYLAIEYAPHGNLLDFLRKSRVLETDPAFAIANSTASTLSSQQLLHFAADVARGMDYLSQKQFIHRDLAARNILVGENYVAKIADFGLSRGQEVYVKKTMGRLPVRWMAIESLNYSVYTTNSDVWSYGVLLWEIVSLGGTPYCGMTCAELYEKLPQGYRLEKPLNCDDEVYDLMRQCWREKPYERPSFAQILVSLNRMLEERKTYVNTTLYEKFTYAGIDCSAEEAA
In words: Tie-2 phosphorylation evaluation in HUVEC. As to conditions: evaluated in the same manner as Baf3 cells, FIG. 3. How it is done:
as §1, §2
2) Tie-2 phosphorylation was similarly evaluated using normal human umbilical vein endothelial cells (HUVEC). […]

T1 sequence (Q02858 23-1122): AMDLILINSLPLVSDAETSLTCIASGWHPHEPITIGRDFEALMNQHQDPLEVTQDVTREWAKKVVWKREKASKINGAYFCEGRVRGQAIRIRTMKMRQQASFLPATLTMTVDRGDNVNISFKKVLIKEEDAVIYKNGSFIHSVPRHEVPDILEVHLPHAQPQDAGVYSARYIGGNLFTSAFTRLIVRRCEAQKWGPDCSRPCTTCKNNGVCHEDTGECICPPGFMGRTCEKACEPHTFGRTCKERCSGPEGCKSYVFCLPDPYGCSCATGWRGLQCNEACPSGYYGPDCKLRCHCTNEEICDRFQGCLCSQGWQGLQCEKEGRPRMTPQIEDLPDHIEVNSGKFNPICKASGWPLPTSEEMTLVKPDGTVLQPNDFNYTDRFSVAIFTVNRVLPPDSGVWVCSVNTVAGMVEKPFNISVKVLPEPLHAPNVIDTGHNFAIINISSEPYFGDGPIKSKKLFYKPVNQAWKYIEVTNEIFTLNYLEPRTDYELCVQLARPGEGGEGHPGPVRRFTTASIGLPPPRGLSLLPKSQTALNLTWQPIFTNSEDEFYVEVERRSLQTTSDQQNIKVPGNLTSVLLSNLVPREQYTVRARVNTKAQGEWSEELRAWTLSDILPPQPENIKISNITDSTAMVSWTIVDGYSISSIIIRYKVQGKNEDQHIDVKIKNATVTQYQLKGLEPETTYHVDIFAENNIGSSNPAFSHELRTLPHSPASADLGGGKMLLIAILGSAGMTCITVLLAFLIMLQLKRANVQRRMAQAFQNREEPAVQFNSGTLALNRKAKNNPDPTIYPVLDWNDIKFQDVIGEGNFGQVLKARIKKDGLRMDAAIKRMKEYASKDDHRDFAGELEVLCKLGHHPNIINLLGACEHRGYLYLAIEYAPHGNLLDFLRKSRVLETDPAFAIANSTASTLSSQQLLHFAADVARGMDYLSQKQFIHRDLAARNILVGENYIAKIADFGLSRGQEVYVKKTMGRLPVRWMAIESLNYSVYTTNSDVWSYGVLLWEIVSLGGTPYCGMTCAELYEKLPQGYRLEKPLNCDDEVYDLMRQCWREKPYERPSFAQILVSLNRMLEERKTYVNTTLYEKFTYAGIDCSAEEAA

`Cc1ccc(C(=O)Nc2ccc(S(=O)(=O)O)c3cc(S(=O)(=O)O)cc(S(=O)(=O)O)c23)cc1NC(=O)c1cccc(NC(=O)Nc2cccc(C(=O)Nc3cc(C(=O)Nc4ccc(S(=O)(=O)O)c5cc(S(=O)(=O)O)cc(S(=O)(=O)O)c45)ccc3C)c2)c1` [Suramin, reference compound]: the “lumen formation (stained image)” value in assay [1] (cultured with VEGF-A 10 ng/ml, FIG. 4, cinnamon bark extract particularly at 300 ppm) was “lumen formation was determined to be inhibited”.

B1: Ang-1: Angiopoietin-1 (R&D System, 932-AN), positive control known to activate Tie-2 (protein, UniProt Q15389 16-498, looked up)
Angiopoietin-1: HIGCSNQRRSPENSGRRYNRIQHGQCAYTFILPEHDGNCRESTTDQYNTNALQRDAPHVEPDFSSQKLQHLEHVMENYTQWLQKLENYIVENMKSEMAQIQQNAVQNHTATMLEIGTSLLSQTAEQTRKLTDVETQVLNQTSRLEIQLLENSLSTYKLEKQLLQQTNEILKIHEKNSLLEHKILEMEGKHKEELDTLKEEKENLQGLVTRQTYIIQELEKQLNRATTNNSVLQKQQLELMDTVHNLVNLCTKEGVLLKGGKREEEKPFRDCADVYQAGFNKSGIYTIYINNMPEPKKVFCNMDVNGGGWTVIQHREDGSLDFQRGWKEYKMGFGNPSGEYWLGNEFIFAITSQRQYMLRIELMDWEGNRAYSQYDRFHIGNEKQNYRLYLKGHTGTAGKQSSLILHGADFSTKDADNDNCMCKCALMLTGGWWFDACGPSNLNGMFYTAGQNHGKLNGIKWHYFKGPSYSLRSTTMMIRPLDF
B1: the Tie-2 phosphorylation result with full-length murine TIE2 and in the assay with Tie-2 was “phosphorylation of Tie-2” in each case. In addition, the “angiogenesis inhibitory action (length and surface area of lumen formation)” value in assay [1] (angiogenesis induced by VEGF-A 10 ng/ml, FIGS. 5 and 6, cinnamon bark extract 10 to 300 ppm) was “did not have angiogenesis inhibitory action”.

These data come from US9320770B2, “Blood vessel maturation, normalization or stabilization agent and wrinkle preventer/improver” (Shiseido Company, Ltd., priority 2008, dated 2016).
